Each block holds one binder with its values, some of them ahead of it.
Experiments:
[1] = biological target: T1, SCD1, released from the linker-cleaved SCD1-cyt b5 fusions (mouse, UniProt P13516 1-355); assay: SEC; binary fusion protein purified, linker cleaved by TEV protease, Superdex 200 10/300 GL in 20 mM HEPES pH 7.5, 150 mM NaCl, 1 mM DDM; elution compared with the tethered fusion; settings: both partners purified
T1 construct: stearoyl-CoA desaturase-1 (SCD1), mouse, UniProt P13516; stands for the SCD1 chain of the fusion with full-length cyt b5 (wild type and TM mutants) and of the fusion with the soluble domain of cyt b5; the GFP tag stood at the C-terminus of the fusion; surmised: ENLYFQ is left at the C-terminus after cleavage
T1 sequence (looked up): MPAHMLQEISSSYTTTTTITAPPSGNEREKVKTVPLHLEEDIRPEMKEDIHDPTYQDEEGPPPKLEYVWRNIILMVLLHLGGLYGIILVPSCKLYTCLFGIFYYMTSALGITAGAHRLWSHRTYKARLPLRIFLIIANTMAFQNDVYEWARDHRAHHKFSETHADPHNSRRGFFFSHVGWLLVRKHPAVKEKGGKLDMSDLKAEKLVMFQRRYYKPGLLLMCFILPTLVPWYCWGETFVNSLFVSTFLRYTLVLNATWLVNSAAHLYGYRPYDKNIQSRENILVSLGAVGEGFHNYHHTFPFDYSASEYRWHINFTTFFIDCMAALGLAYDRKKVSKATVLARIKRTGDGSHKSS

[2] = biological target: T2, SCD1, released from the linker-cleaved SCD1-cyt b5-b5R fusions (mouse, UniProt P13516 1-355); assay: SEC; ternary fusion SCD1-cyt b5-b5R purified, linkers cleaved by TEV protease, Superdex 200 10/300 GL in 20 mM HEPES pH 7.5, 150 mM NaCl, 1 mM DDM; three proteins in the sample; settings: both partners purified
T2 construct: stearoyl-CoA desaturase-1 (SCD1), mouse, UniProt P13516; stands for the SCD1 chain of the ternary fusion of the full-length proteins and of the sample with soluble cyt b5 and b5R; surmised: linker residues are left after TEV cleavage; not shown: GFP, N-terminal, cleaved
T2 sequence (looked up): T1 sequence (looked up)

binding result [1]: binds
B1: full-length cyt b5, released from the linker-cleaved SCD1-cyt b5 fusion (natural protein, mouse, UniProt P56395 1-134, looked up)
chain: MAGQSDKDVKYYTLEEIQKHKDSKSTWVILHHKVYDLTKFLEEHPGGEEVLREQAGGDATENFEDVGHSTDARELSKTYIIGELHPDDRSKIAKPSDTLITTVESNSSWWTNWVIPAISALAVALMYRLYMAED
notes: cytochrome b5, mouse, UniProt P56395; surmised: G at the N-terminus and ENLYFQ at the C-terminus are left after TEV cleavage; not shown: GFP, C-terminal, cleaved

binding result [2]: binds
B2: full-length cyt b5, released from the linker-cleaved SCD1-cyt b5-b5R fusion (natural protein, mouse, UniProt P56395 1-134, looked up)
chain: B1 chain
notes: cytochrome b5, mouse, UniProt P56395; surmised: linker residues are left after TEV cleavage

— article PMC9468158, “Transmembrane helices mediate the formation of a stable ternary complex of b5R, cyt b5, and SCD1” (Communications Biology, 2022)
